Reference: patent publication US20100028924A1, “Method Of Diagnosing Pon1-Hdl Associated Lipid Disorders” (Rappaport Family Institute Research in the Medical Sciences, priority 2006, published 2010)

Tests used:
[1] = system: apoA-I rHDL; test: Inactivation kinetics of human PON1 192 isozymes on rHDL-apoA-I (NTA/β-mercaptoethanol); format: biochemical; conditions: 50-fold molar excess rHDL-apoA-I; NTA and β-mercaptoethanol each 5 mM, 25° C.
Protocol: (§1) FIGS. 5A-B are graphs showing the inactivation and catalytic stimulation of the human PON1 192R/Q isozymes. FIG. 5A is a line graph showing the inactivation kinetics of human PON1-192R and -192Q in the presence of rHDL-apoA-I. The delipidated isozymes (0.2 μM) were incubated with a 50-fold molar excess of rHDL-apoA-I in activity buffer, and subjected to inactivation by NTA and β-mercaptoethanol (each at 5 mM) at 25° C. Residual activity determined as above (FIG. 1) and data were fitted to a double-exponential function. FIG. 5B is a bar graph showing stimulation of the enzymatic activity of human PON1-192R and -192Q by rHDL-apoA-I. The delipidated isozymes were incubated with a 50-fold molar excess of rHDL-apoA-I, and enzymatic activity was determined with various substrates (at 1 mM for all the substrates, except TBBL at 0.25 mM). The activity is presented in relation to the initial activity of the delipidated enzymes (percentage of stimulation). Each bar represents the mean and S.D. of at least two independent measurements;
Human PON1-192R and Q isozymes purified from pooled blood samples [Gan, K. N., et al., Drug Metab Dispos, 1991. 19(1): p. 100-6] were kindly provided by Dr. Dragomir Draganov (University of Michigan, Ann Arbour), and stored in presence of 0.1% tergitol and 20% glycerol. Prior to assay, these samples were briefly delipidated [Gaidukov, L. and D. S. Tawfik, Biochemistry, 2005. 44(35): p. 11843-54] and dialyzed against activity buffer to remove the tergitol and glycerol that interfere with HDL binding. Dialyzed samples (0.2 μM) were incubated with rHDL (10 μM). Stability assays were performed at 25° C., in activity buffer supplemented with nitrilotriacetic acid (NTA) and β-mercaptoethanol, both at 5 mM. Data analysis was performed as described above for rePON1s. Stimulation of enzymatic activities was measured with various substrates at 1 mM concentration, except for TBBL (0.25 mM).
The progress of inactivation of human PON1 isozymes anchored on rHDL-apoA-I is illustrated in FIG. 5A. Inactivation of both isozymes followed a two-phase kinetics with similar inactivation rates, but different partitioning between the HDL-bound and unbound phases, as detailed in Table 4 hereinbelow. Amplitudes (A) and kinetic rates of inactivation (k^inactiv) were derived by fitting the data to a double-exponential curve.

[2] = system: rHDL-apoA-I; test: Stimulation of enzymatic activity of human PON1 192 isozymes by rHDL-apoA-I; format: biochemical; conditions: all the lactones tested; rHDL/PON1 ratio of 50
Protocol: as §1, with “Each bar represents the mean and S.D. of at least two independent measurements;” left out
Human PON1-192R and Q isozymes purified from pooled blood samples [Gan, K. N., et al., Drug Metab Dispos, 1991. […] Stimulation of enzymatic activities was measured with various substrates at 1 mM concentration, except for TBBL (0.25 mM).
HDL-mediated stimulation of the enzymatic activity of human PON1 isozymes was determined by incubating PON1 with the highest rHDL-apoA-I concentration (corresponding to the rHDL/PON1 ratio of 50) (FIG. 5B). […]

[3] = system: apoA-I rHDL; test: Inactivation kinetics of rePON1 192 isozymes bound to rHDL-apoA-I (EDTA/β-mercaptoethanol, residual phenyl acetate hydrolysis); format: biochemical; conditions: apoA-I rHDL, 50-fold molar excess; EDTA and β-mercaptoethanol, 37° C.
Protocol: (§2) FIG. 1 is a graph showing the inactivation kinetics of the wild-type rePON1-192K (SEQ ID NO:2), -192R (SEQ ID NO:4) and -192Q (SEQ ID NO:6) isozymes, bound to rHDL-apoA-I, or in buffer. Delipidated enzymes were incubated with a 50-fold excess of rHDL-apoA-I, or in activity buffer, and subjected to inactivation in the presence of EDTA (5 mM) and β-mercaptoethanol (10 mM) at 37° C. Residual activity at various time points was determined by initial rates of phenyl acetate hydrolysis (2 mM) and plotted as percent of the activity at time zero. Data were fitted to a single exponential for wild-type rePON1-192K on rHDL-apoA-I, and to double-exponentials for the remaining samples. The inactivation rate constants and amplitudes were derived from this fit;
(§3) Inactivation rates of rePON1s were measured as described [Gaidukov, L. and D. S. Tawfik, Biochemistry, 2005. 44(35): p. 11843-54]. Briefly, rePON1 samples were delipidated using Bio-Beads SM-2 (BioRad) and incubated in buffer, or with 50-fold molar excess of rHDL-apoA-I. EDTA (10 mM) and β-mercaptoethanol (20 mM) were added, and samples were incubated at 37° C. Residual activity at different time points was determined with 2 mM phenyl acetate, and inactivation rates were fitted to either mono- or double-exponentials [Gaidukov, L. and D. S. Tawfik, Biochemistry, 2005. 44(35): p. 11843-54].
(§4) The resultant inactivation profiles of wt rePON1 (SEQ ID NO: 2), rePON1-192Q (SEQ ID NO: 6) and rePON1-192R (SEQ ID NO: 4), were fitted to exponential curves as illustrated in FIG. 1.

[4] = Inactivation kinetics of rePON1 192 isozymes in activity buffer; format: biochemical; conditions: EDTA and β-mercaptoethanol, 37° C.
Protocol: as §2, §3, §4

[5] = system: apoA-I rHDL; test: Surface plasmon resonance binding of Δ20-rePON1 192 isozymes to immobilized rHDL-apoA-I; conditions: relative to the Q isozyme
Protocol: FIGS. 2A-C are sensorgrams for the binding of wt Δ20-rePON1-192K—SEQ ID NO:8 (FIG. 2A), Δ20-rePON1-192R—SEQ ID NO:10 (FIG. 2B) and Δ20-rePON1-192Q—SEQ ID NO:12 (FIG. 2C) isozymes to rHDL-apoA-I. Biotinylated rHDL-apoA-I particles were immobilized onto the streptavidin surface (SA chip), and a series of PON1 concentrations were injected over the immobilized and blank surfaces to obtain the net binding response. Binding was performed at 25° C. Association and dissociation phases were fitted to a single exponential, from which kinetic rate constants were derived. PON1 concentrations in all the sensorgrams are (from bottom to top) 25, 40, 60, 80, 100, 150 and 200 nM;
Surface plasmon resonance (SPR) measurements: rHDL-apoA-I particles containing 0.7% of N-biotinyl-dipalmitoylphosphatidylethanolamine (N-biotynyl-DPPE; Avanti Polar Lipids) were prepared and purified as described [Gaidukov, L. and D. S. Tawfik, Biochemistry, 2005. 44(35): p. 11843-54]. SPR was performed on BIAcore 3000 (Uppsala, Sweden) as described [Gaidukov, L. and D. S. Tawfik, Biochemistry, 2005. 44(35): p. 11843-54]. Briefly, the biotinylated rHDL particles were adsorbed on streptavidin (SA5) chip, and Δ20-rePON1 isozymes were injected over the immobilized and blank surfaces to obtain the net binding response. Binding rate constants were obtained by fitting of association and dissociation phases to single exponentials as described [Gaidukov, L. and D. S. Tawfik, Biochemistry, 2005. 44(35): p. 11843-54].
The above results were further supported by affinity measurements using surface plasmon resonance. It was previously shown that HDL affinity of the intact rePON1 is very high (sub-nanomolar) and could not be determined accurately using surface plasmon resonance [Gaidukov, L., and Tawfik, D. S. (2005)Biochemistry 44, 11843-11854]. In contrast, binding affinity of the truncated variant lacking the first 20 amino acids of the hydrophobic N-terminus (Δ20-rePON1) could be amply determined. Therefore, the truncated variants of PON1 192 isozymes were prepared and their HDL binding affinities measured. Typical binding sensorgrams between Δ20-rePON1 isozymes and the immobilized HDL particles are portrayed in FIGS. 2A-C, and the derived rate and affinity constants are summarized in Table 2 herein below.

[6] = system: apoA-I rHDL; test: Stimulation of enzymatic activity of rePON1 192 isozymes by rHDL-apoA-I; format: biochemical; conditions: for Vmax (%) activation factor: relative to delipidated enzyme (100%)
Text: The activity is presented in relation to the initial activity of the delipidated enzymes (percentage of stimulation). Data were fitted to the Langmuir saturation curve, from which the activation factor (Vmax) and the apparent affinity (Kapp) were derived;
Stimulated activity is presented as the percentage of the initial activity of the delipidated enzymes (corresponds to 100%). Data were fitted to the Langmuir saturation curve, from which the activation factor (Vmax) and the apparent affinity (Kapp) were derived;
Delipidated rePONs at 0.2 μM were incubated with a range of rHDL concentrations (0.1-10 μM) for 3 hrs at 37° C. Enzymatic activity was determined in activity buffer (50 mM Tris pH 8.0, 1 mM CaCl2) with substrates at 1 mM concentrations as described [Gaidukov, L. and D. S. Tawfik, Biochemistry, 2005. 44(35): p. 11843-54]. 5-(thiobutyl)-butyrolactone (TBBL) was applied at 0.25 mM, and product formation was monitored spectrophotometrically at 412 nm using 5,5′-dithio-bis-2-nitrobenzoic acid (DTNB) as described [Khersonsky, O. and D. S. Tawfik, Chembiochem, 2006. 7(1): p. 49-53].
Stimulation of the enzymatic activity was examined by incubating rePON1 isozymes with a range of rHDL concentrations (at the HDL/PON ratio of 0.5-50), and measuring the catalytic activity with various substrates as detailed hereinabove. FIGS. 3A-B illustrate the enzymatic activity of the rePON1 isozymes with δ-nonanoic lactone as substrate (FIG. 3A) and thiobutyl butiryl lactone (TBBL) as substrate (FIG. 3B). FIGS. 4A-D illustrate the enzymatic activity of the rePON1 isozymes with γ-dodecanoic lactone as substrate (FIG. 4A), δ-valerolactone as substrate (FIG. 4B), phenyl acetate as substrate (FIG. 4C) and paraoxon as substrate (FIG. 4D). Data were fitted to the Langmuir saturation curve to give the activation factor Vmax (in percent relative to the delipidated PON1) and the apparent affinity Kapp.

[7] = molecular target: apoA-I rHDL; conditions: previously shown; could not be determined accurately by SPR; cited from earlier work
[8] = substrate γ-dodecanoic lactone 1 mM
[9] = substrate δ-nonanoic lactone 1 mM

B1: human PON1-192R: human PON1 192R isozyme purified from pooled blood samples (protein)
chain: AKLIALTLLGMGLALFRNHQSSYQTRLNALREVQPVELPNCNLVKGIETGSEDLEILPNGLAFISSGLKYPGIKSFNPNSPGKILLMDLNEEDPTVLELGITGSKFDVSSFNPHGISTFTDEDNAMYLLVVNHPDAKSTVELFKFQEEEKSLLHLKTIRHKLLPNLNDIVAVGPEHFYGTNDHYFLDPYLRSWEMYLGLAWSYVVYYSPSEVRVVAEGFDFANGINISPDGKYVYIAELLAHKIHVYEKHANWTLTPLKSLDFNTLVDNISVDPETGDLWVGCHPNGMKIFFYDSENPPASEVLRIQNILTEEPKVTQVYAENGTVLQGSTVASVYKGKLLIGTVFHKALYCEL
- A2(%) (slow phase, HDL-bound fraction) [1]: 87%
- k1^inactiv (first, fast phase) [1]: 0.4 h⁻¹
- k2^inactiv (second, slow phase) [1]: 0.01 h⁻¹
- fold higher activation level than 192Q [2]: about 2 fold

B2: wt rePON1-192K: recombinant wild-type PON1 variant G3C9 with C-terminal His8-tag, lysine at position 192, close homologue of rabbit PON1 (protein)
chain: MAKLTALTLLGLGLALFDGQKSSFQTRFNVHREVTPVELPNCNLVKGVDNGSEDLEILPNGLAFISSGLKYPGIMSFDPDKSGKILLMDLNEEDPVVLELGITGNTLDISSFNPHGISTFTDEDNTVYLLVVNHPDSSSTVEVFKFQEEEKSLLHLKTIRHKLLPSVNDIVAVGPEHFYATNDHYFADPYLKSWEMHLGLAWSFVTYYSPNDVRVVAEGFDFANGINISPDGKYVYIAELLAHKIHVYEKHANWTLTPLKSLDFDTLVDNISVDPVTGDLWVGCHPNGMRIFYYDPKNPPGSEVLRIQDILSEEPKVTVVYAENGTVLQGSTVAAVYKGKLLIGTVFHKALYCEL
modifications: C-terminal His8 tag; WT rePON1-192K
notes: recombinant wild-type PON1 variant G3C9 with C-terminal His8-tag, lysine at position 192, close homologue of rabbit PON1
- A2 (%) (amplitude of second, slow inactivation phase = HDL-bound fraction) [3]: 100%
- k2^inactiv (second, slow phase) [3]: 0.01 h⁻¹
- k1^inactiv (first, fast phase) [4]: 4.5 h⁻¹
- k2^inactiv (second, slow phase) [4]: 0.2 h⁻¹
- fold higher HDL binding affinity than the Q isozyme [5]: 3 fold
- Kapp (apparent affinity for HDL stimulation) ([6]; substrate TBBL 0.25 mM): 0.5 ± 0.1 µM
- Vmax (%) activation factor ([6]; substrate TBBL 0.25 mM): 791 ± 10%
- Kapp (apparent affinity for HDL stimulation) ([6]; substrate paraoxon 1 mM): 0.6 ± 0.1 µM
- Vmax (%) activation factor ([6]; substrate paraoxon 1 mM): 222 ± 2%
- Kapp (apparent affinity for HDL stimulation) ([6]; substrate phenyl acetate 1 mM): 0.5 ± 0.1 µM
- Vmax (%) activation factor ([6]; substrate phenyl acetate 1 mM): 425 ± 4%
- Kapp (apparent affinity for HDL stimulation) [6, 8]: 1.2 ± 0.1 µM
- Vmax (%) activation factor [6, 8]: 1830 ± 22%
- Kapp (apparent affinity for HDL stimulation) [6, 9]: 1.3 ± 0.1 µM
- Vmax (%) activation factor [6, 9]: 1580 ± 19%
- Kapp (apparent affinity for HDL stimulation) ([6]; substrate δ-valerolactone 1 mM): 1.3 ± 0.1 µM
- Vmax (%) activation factor ([6]; substrate δ-valerolactone 1 mM): 1724 ± 23%
- HDL affinity of the intact rePON1 [7]: sub-nanomolar
